Data as given in patent US12679878B2, “CRF2 receptor agonists and their use in therapy” (SANOFI, priority 2020, dated 2026).
Starred links: 1 amine or outer side, 2 acyl side, 3 side chain; linkers in the order of their positions; H or OH if unused. Non-standard residues stand in square brackets, D forms with d. Groups on a side chain read outwards from the residue. No end group written: not given here. *: point of attachment. C16 diacid = O=C(O)CCCCCCCCCCCCCCC(=O)*; γGlu = O=C(O)[C@H](CCC(=O)[*:2])N[*:1]; AEEA = NCCOCCOCC(=O)O; Aib = CC(C)(N)C(=O)O

T1: CRF1R receptor (anti-target) (UniProt P34998 24-415, limits assumed)
T1 sequence (looked up): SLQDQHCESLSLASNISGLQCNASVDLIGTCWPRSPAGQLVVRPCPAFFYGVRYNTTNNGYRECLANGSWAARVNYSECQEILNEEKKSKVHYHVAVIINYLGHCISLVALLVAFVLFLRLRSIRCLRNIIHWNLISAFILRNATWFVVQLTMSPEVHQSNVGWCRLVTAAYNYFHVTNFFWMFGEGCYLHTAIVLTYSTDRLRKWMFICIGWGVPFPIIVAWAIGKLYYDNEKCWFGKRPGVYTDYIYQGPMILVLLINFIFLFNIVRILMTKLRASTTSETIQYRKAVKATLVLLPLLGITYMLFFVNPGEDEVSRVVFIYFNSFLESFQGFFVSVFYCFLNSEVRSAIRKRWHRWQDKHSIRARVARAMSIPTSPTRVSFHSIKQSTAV

T2: CRF1R receptor (anti-target) (UniProt P34998 24-415, limits assumed)
T2 sequence (looked up): T1 sequence (looked up)

B1: peptide of SEQ ID NO: 203 (peptide)
peptide: IVLSLD[dV]PIGLK([AEEA-AEEA-γGlu-γGlu-C16 diacid])QILLKQERQKK[Aib]REQAETNKQILAQV-NH2
modifications: N-terminus assumed
SMILES: CC[C@H](C)[C@H](N)C(=O)N[C@H](C(=O)N[C@@H](CC(C)C)C(=O)N[C@@H](CO)C(=O)N[C@@H](CC(C)C)C(=O)N[C@@H](CC(=O)O)C(=O)N[C@@H](C(=O)N1CCC[C@H]1C(=O)N[C@H](C(=O)NCC(=O)N[C@@H](CC(C)C)C(=O)N[C@@H](CCCCNC(=O)COCCOCCNC(=O)COCCOCCNC(=O)CC[C@H](NC(=O)CC[C@H](NC(=O)CCCCCCCCCCCCCCC(=O)O)C(=O)O)C(=O)O)C(=O)N[C@@H](CCC(N)=O)C(=O)N[C@H](C(=O)N[C@@H](CC(C)C)C(=O)N[C@@H](CC(C)C)C(=O)N[C@@H](CCCCN)C(=O)N[C@@H](CCC(N)=O)C(=O)N[C@@H](CCC(=O)O)C(=O)N[C@@H](CCCNC(=N)N)C(=O)N[C@@H](CCC(N)=O)C(=O)N[C@@H](CCCCN)C(=O)N[C@@H](CCCCN)C(=O)NC(C)(C)C(=O)N[C@@H](CCCNC(=N)N)C(=O)N[C@@H](CCC(=O)O)C(=O)N[C@@H](CCC(N)=O)C(=O)N[C@@H](C)C(=O)N[C@@H](CCC(=O)O)C(=O)N[C@H](C(=O)N[C@@H](CC(N)=O)C(=O)N[C@@H](CCCCN)C(=O)N[C@@H](CCC(N)=O)C(=O)N[C@H](C(=O)N[C@@H](CC(C)C)C(=O)N[C@@H](C)C(=O)N[C@@H](CCC(N)=O)C(=O)N[C@H](C(N)=O)C(C)C)[C@@H](C)CC)[C@@H](C)O)[C@@H](C)CC)[C@@H](C)CC)C(C)C)C(C)C
B2: peptide of SEQ ID NO: 202 (peptide)
peptide: IVLSLD[dV]PIGLK([AEEA-AEEA-γGlu-C16 diacid])QILLKQERQKK[Aib]REQAETNKQILAQV-NH2
modifications: N-terminus assumed
SMILES: CC[C@H](C)[C@H](N)C(=O)N[C@H](C(=O)N[C@@H](CC(C)C)C(=O)N[C@@H](CO)C(=O)N[C@@H](CC(C)C)C(=O)N[C@@H](CC(=O)O)C(=O)N[C@@H](C(=O)N1CCC[C@H]1C(=O)N[C@H](C(=O)NCC(=O)N[C@@H](CC(C)C)C(=O)N[C@@H](CCCCNC(=O)COCCOCCNC(=O)COCCOCCNC(=O)CC[C@H](NC(=O)CCCCCCCCCCCCCCC(=O)O)C(=O)O)C(=O)N[C@@H](CCC(N)=O)C(=O)N[C@H](C(=O)N[C@@H](CC(C)C)C(=O)N[C@@H](CC(C)C)C(=O)N[C@@H](CCCCN)C(=O)N[C@@H](CCC(N)=O)C(=O)N[C@@H](CCC(=O)O)C(=O)N[C@@H](CCCNC(=N)N)C(=O)N[C@@H](CCC(N)=O)C(=O)N[C@@H](CCCCN)C(=O)N[C@@H](CCCCN)C(=O)NC(C)(C)C(=O)N[C@@H](CCCNC(=N)N)C(=O)N[C@@H](CCC(=O)O)C(=O)N[C@@H](CCC(N)=O)C(=O)N[C@@H](C)C(=O)N[C@@H](CCC(=O)O)C(=O)N[C@H](C(=O)N[C@@H](CC(N)=O)C(=O)N[C@@H](CCCCN)C(=O)N[C@@H](CCC(N)=O)C(=O)N[C@H](C(=O)N[C@@H](CC(C)C)C(=O)N[C@@H](C)C(=O)N[C@@H](CCC(N)=O)C(=O)N[C@H](C(N)=O)C(C)C)[C@@H](C)CC)[C@@H](C)O)[C@@H](C)CC)[C@@H](C)CC)C(C)C)C(C)C
B3: peptide of SEQ ID NO: 221 (peptide)
peptide: IVLSLD[dV]PTKLK([γGlu-C16 diacid])QKLLKQERQRKEREQAEKNARILARV-NH2
modifications: N-terminus assumed
SMILES: CC[C@H](C)[C@H](N)C(=O)N[C@H](C(=O)N[C@@H](CC(C)C)C(=O)N[C@@H](CO)C(=O)N[C@@H](CC(C)C)C(=O)N[C@@H](CC(=O)O)C(=O)N[C@@H](C(=O)N1CCC[C@H]1C(=O)N[C@H](C(=O)N[C@@H](CCCCN)C(=O)N[C@@H](CC(C)C)C(=O)N[C@@H](CCCCNC(=O)CC[C@H](NC(=O)CCCCCCCCCCCCCCC(=O)O)C(=O)O)C(=O)N[C@@H](CCC(N)=O)C(=O)N[C@@H](CCCCN)C(=O)N[C@@H](CC(C)C)C(=O)N[C@@H](CC(C)C)C(=O)N[C@@H](CCCCN)C(=O)N[C@@H](CCC(N)=O)C(=O)N[C@@H](CCC(=O)O)C(=O)N[C@@H](CCCNC(=N)N)C(=O)N[C@@H](CCC(N)=O)C(=O)N[C@@H](CCCNC(=N)N)C(=O)N[C@@H](CCCCN)C(=O)N[C@@H](CCC(=O)O)C(=O)N[C@@H](CCCNC(=N)N)C(=O)N[C@@H](CCC(=O)O)C(=O)N[C@@H](CCC(N)=O)C(=O)N[C@@H](C)C(=O)N[C@@H](CCC(=O)O)C(=O)N[C@@H](CCCCN)C(=O)N[C@@H](CC(N)=O)C(=O)N[C@@H](C)C(=O)N[C@@H](CCCNC(=N)N)C(=O)N[C@H](C(=O)N[C@@H](CC(C)C)C(=O)N[C@@H](C)C(=O)N[C@@H](CCCNC(=N)N)C(=O)N[C@H](C(N)=O)C(C)C)[C@@H](C)CC)[C@@H](C)O)C(C)C)C(C)C
B4: peptide of SEQ ID NO: 222 (peptide)
peptide: IVLSLD[dV]PTKLK([γGlu-C16 diacid])QKLLKQERQRKEREQAEKNVRILERV-NH2
modifications: N-terminus assumed
SMILES: CC[C@H](C)[C@H](N)C(=O)N[C@H](C(=O)N[C@@H](CC(C)C)C(=O)N[C@@H](CO)C(=O)N[C@@H](CC(C)C)C(=O)N[C@@H](CC(=O)O)C(=O)N[C@@H](C(=O)N1CCC[C@H]1C(=O)N[C@H](C(=O)N[C@@H](CCCCN)C(=O)N[C@@H](CC(C)C)C(=O)N[C@@H](CCCCNC(=O)CC[C@H](NC(=O)CCCCCCCCCCCCCCC(=O)O)C(=O)O)C(=O)N[C@@H](CCC(N)=O)C(=O)N[C@@H](CCCCN)C(=O)N[C@@H](CC(C)C)C(=O)N[C@@H](CC(C)C)C(=O)N[C@@H](CCCCN)C(=O)N[C@@H](CCC(N)=O)C(=O)N[C@@H](CCC(=O)O)C(=O)N[C@@H](CCCNC(=N)N)C(=O)N[C@@H](CCC(N)=O)C(=O)N[C@@H](CCCNC(=N)N)C(=O)N[C@@H](CCCCN)C(=O)N[C@@H](CCC(=O)O)C(=O)N[C@@H](CCCNC(=N)N)C(=O)N[C@@H](CCC(=O)O)C(=O)N[C@@H](CCC(N)=O)C(=O)N[C@@H](C)C(=O)N[C@@H](CCC(=O)O)C(=O)N[C@@H](CCCCN)C(=O)N[C@@H](CC(N)=O)C(=O)N[C@H](C(=O)N[C@@H](CCCNC(=N)N)C(=O)N[C@H](C(=O)N[C@@H](CC(C)C)C(=O)N[C@@H](CCC(=O)O)C(=O)N[C@@H](CCCNC(=N)N)C(=O)N[C@H](C(N)=O)C(C)C)[C@@H](C)CC)C(C)C)[C@@H](C)O)C(C)C)C(C)C
B5: peptide of SEQ ID NO: 197 (peptide)
peptide: IVLSLD[dV]PIKLK([γGlu-C16 diacid])QILLKQARQK[Aib]QRAQAEKNKRILERV-NH2
modifications: N-terminus assumed
SMILES: CC[C@H](C)[C@H](N)C(=O)N[C@H](C(=O)N[C@@H](CC(C)C)C(=O)N[C@@H](CO)C(=O)N[C@@H](CC(C)C)C(=O)N[C@@H](CC(=O)O)C(=O)N[C@@H](C(=O)N1CCC[C@H]1C(=O)N[C@H](C(=O)N[C@@H](CCCCN)C(=O)N[C@@H](CC(C)C)C(=O)N[C@@H](CCCCNC(=O)CC[C@H](NC(=O)CCCCCCCCCCCCCCC(=O)O)C(=O)O)C(=O)N[C@@H](CCC(N)=O)C(=O)N[C@H](C(=O)N[C@@H](CC(C)C)C(=O)N[C@@H](CC(C)C)C(=O)N[C@@H](CCCCN)C(=O)N[C@@H](CCC(N)=O)C(=O)N[C@@H](C)C(=O)N[C@@H](CCCNC(=N)N)C(=O)N[C@@H](CCC(N)=O)C(=O)N[C@@H](CCCCN)C(=O)NC(C)(C)C(=O)N[C@@H](CCC(N)=O)C(=O)N[C@@H](CCCNC(=N)N)C(=O)N[C@@H](C)C(=O)N[C@@H](CCC(N)=O)C(=O)N[C@@H](C)C(=O)N[C@@H](CCC(=O)O)C(=O)N[C@@H](CCCCN)C(=O)N[C@@H](CC(N)=O)C(=O)N[C@@H](CCCCN)C(=O)N[C@@H](CCCNC(=N)N)C(=O)N[C@H](C(=O)N[C@@H](CC(C)C)C(=O)N[C@@H](CCC(=O)O)C(=O)N[C@@H](CCCNC(=N)N)C(=O)N[C@H](C(N)=O)C(C)C)[C@@H](C)CC)[C@@H](C)CC)[C@@H](C)CC)C(C)C)C(C)C
B6: peptide of SEQ ID NO: 190 (peptide)
peptide: IVLSLD[dV]PIKLK([γGlu-C16 diacid])QILLKQERQKKQREQAEKNKQILEQV-NH2
modifications: N-terminus assumed
SMILES: CC[C@H](C)[C@H](N)C(=O)N[C@H](C(=O)N[C@@H](CC(C)C)C(=O)N[C@@H](CO)C(=O)N[C@@H](CC(C)C)C(=O)N[C@@H](CC(=O)O)C(=O)N[C@@H](C(=O)N1CCC[C@H]1C(=O)N[C@H](C(=O)N[C@@H](CCCCN)C(=O)N[C@@H](CC(C)C)C(=O)N[C@@H](CCCCNC(=O)CC[C@H](NC(=O)CCCCCCCCCCCCCCC(=O)O)C(=O)O)C(=O)N[C@@H](CCC(N)=O)C(=O)N[C@H](C(=O)N[C@@H](CC(C)C)C(=O)N[C@@H](CC(C)C)C(=O)N[C@@H](CCCCN)C(=O)N[C@@H](CCC(N)=O)C(=O)N[C@@H](CCC(=O)O)C(=O)N[C@@H](CCCNC(=N)N)C(=O)N[C@@H](CCC(N)=O)C(=O)N[C@@H](CCCCN)C(=O)N[C@@H](CCCCN)C(=O)N[C@@H](CCC(N)=O)C(=O)N[C@@H](CCCNC(=N)N)C(=O)N[C@@H](CCC(=O)O)C(=O)N[C@@H](CCC(N)=O)C(=O)N[C@@H](C)C(=O)N[C@@H](CCC(=O)O)C(=O)N[C@@H](CCCCN)C(=O)N[C@@H](CC(N)=O)C(=O)N[C@@H](CCCCN)C(=O)N[C@@H](CCC(N)=O)C(=O)N[C@H](C(=O)N[C@@H](CC(C)C)C(=O)N[C@@H](CCC(=O)O)C(=O)N[C@@H](CCC(N)=O)C(=O)N[C@H](C(N)=O)C(C)C)[C@@H](C)CC)[C@@H](C)CC)[C@@H](C)CC)C(C)C)C(C)C

Target: human corticotropin-releasing factor 2α (CRF2α receptor) (human), Q13324
Sequence (Q13324 20-411): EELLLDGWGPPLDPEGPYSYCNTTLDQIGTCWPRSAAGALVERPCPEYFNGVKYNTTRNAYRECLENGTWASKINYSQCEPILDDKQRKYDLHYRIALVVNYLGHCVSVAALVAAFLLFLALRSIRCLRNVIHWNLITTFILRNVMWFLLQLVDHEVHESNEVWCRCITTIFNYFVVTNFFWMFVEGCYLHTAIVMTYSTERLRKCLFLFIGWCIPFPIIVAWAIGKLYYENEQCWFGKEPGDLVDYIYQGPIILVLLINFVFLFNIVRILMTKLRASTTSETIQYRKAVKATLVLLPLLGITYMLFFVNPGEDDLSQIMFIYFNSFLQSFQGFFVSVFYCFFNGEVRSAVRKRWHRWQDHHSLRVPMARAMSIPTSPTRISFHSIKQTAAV
Experiment: cell-based or functional assay

EC50 [nM], 0% HSA (cAMP, HTRF) [nM] | Binder
4.7 | B1
0.87 | B2
2.71 | B3
7.38 | B4

Target: T1, CRF1R receptor (anti-target)
Experiment: cell-based or functional assay

CRF1/CRF2 ratio (of EC50) | CRF1 EC50 (cAMP, HTRF) [nM] | Binder
> 500 | > 100 | B5
> 500 | > 100 | B6

Target: T2, CRF1R receptor (anti-target)
Experiment: cell-based or functional assay

EC50 [nM] 0% HSA (cAMP, HTRF) [nM] | Emax (%) (100% = Sauvagine at 100 nM) | Binder
> 100 | 4.7 | B1
> 100 | 5.4 | B2
> 100 | 3.2 | B3
> 100 | 6.2 | B4
